Measurements reported in US20150284465A1 (Chugai, published 2015).
Where two headings read alike, the source gives them in different places.

Columns and labels:
[1] = target: T1, human-derived Fcγ receptor IIb (Recombinant Human FcRIIB/C, R&D systems) (human, UniProt P31994 46-217, limits assumed); assay: SPR (Biacore T100), FcγRIIb immobilized on CM5, antibody as analyte at 200 µg/ml, 25 C
T1 construct: Bought recombinant protein, construct not described; also called FcγRIIb
T1 sequence (looked up): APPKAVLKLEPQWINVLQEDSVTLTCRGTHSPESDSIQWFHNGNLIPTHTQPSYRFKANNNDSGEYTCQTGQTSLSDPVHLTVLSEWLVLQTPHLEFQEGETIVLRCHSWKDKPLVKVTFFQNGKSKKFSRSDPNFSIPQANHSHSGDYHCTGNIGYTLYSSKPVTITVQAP
Description: The FcγRIIb binding was assessed by the procedure described below. […] The amounts of bound antibody were compared. […] FcγRIIb was immobilized onto the sensor chip CM5 (Biacore) by the amine coupling method. The final amount of immobilized FcγRIIb was about 4,300 RU. Then, the running buffer was injected until the baseline was stabilized. The measurement was carried out after the baseline was stabilized. […] The running buffer used was HBS-EP+ (10 mM HEPES, 0.15M NaCl, 3 mM EDTA, 0.05% v/v Surfactant P20), and the flow rate was 20 μl/min. The measurement temperature was 25° C. The concentration of each IgG or modified form thereof was adjusted to 200 μg/ml. 20 μl of an analyte was injected and allowed to interact with the immobilized FcγRIIb. After interaction, the analyte was dissociated from FcγRIIb and the sensor chip was regenerated by injecting 200 μl of the running buffer. […] This series of injection was repeated twice.

[2] = target: T2, hFcγRIIIaV-His6 (human-derived Fcγ receptor IIIa, Val) (human, UniProt P08637 17-208, limits assumed); assay: SPR (Biacore T100), hFcγRIIIaV-His6 immobilized on CM5, antibody as analyte at 250 µg/ml
T2 construct: also called FcγRIIIa (Val); not shown: His6 tag
Description: The FcγRIIIa binding was assessed by the procedure described below. […] The amounts of bound antibody were compared. […] FcγRIIIa was immobilized onto the sensor chip CM5 (Biacore) by the amine coupling method. […] The running buffer used was HBS-EP+, and the flow rate was 5 μl/min. The sample concentration was adjusted to 250 μg/ml using HBS-EP+. The analysis included two steps: two minutes of association phase where 10 μl of an antibody solution was injected and the subsequent four minutes of dissociation phase where the injection was switched with HBS-EP+. After the dissociation phase, the sensor chip was regenerated by injecting 20 μl of 5 mM hydrochloric acid. The association, dissociation, and regeneration constitute one analysis cycle. Various antibody solutions were injected to obtain sensorgrams. […] 1999 August; 29(8):2613-24.

[3] = target: T3, soluble human FcRn (complex of FcRn and β2-microglobulin) (human, UniProt P55899 24-290; P16213 21-119); assay: SPR (Biacore 3000), antibody captured on Protein L or anti-human kappa chain antibody, human FcRn as analyte, pH 6.0, steady state affinity
T3 construct: also called hFcRn; copies: 1 + 1
Description: (§1) The binding to human FcRn was assessed using Biacore 3000. An antibody was bound to Protein L or rabbit anti-human IgG Kappa chain antibody immobilized onto a sensor chip, human FcRn was added as an analyte for interaction with the antibody, and the affinity (KD) was calculated from the amount of bound human FcRn. Specifically, Protein L or rabbit anti-human IgG Kappa chain antibody was immobilized onto sensor chip CM5 (Biacore) by the amine coupling method using 50 mM Na-phosphate buffer (pH 6.0) containing 150 mM NaCl as the running buffer. Then, an antibody was diluted with a running buffer containing 0.02% Tween20, and injected to be bound to the chip. Human FcRn was then injected and the binding activity of the human FcRn to antibody was assessed.
(§2) The affinity was computed using BlAevaluation Software. The obtained sensorgram was used to calculate the amount of hFcRn bound to the antibody immediately before the end of human FcRn injection. The affinity of the antibody for human FcRn was calculated by fitting with the steady state affinity method.

[4] = target: T4, SR344 (N-terminal 1st to 344th amino acids of soluble human IL-6R) (human, UniProt P08887 20-344, limits assumed); assay: SPR (Biacore T100), antibody captured on Protein A, soluble human IL-6 receptor as analyte
T4 construct: also called recombinant soluble IL-6 receptor; soluble human IL-6 receptor
T4 sequence (looked up): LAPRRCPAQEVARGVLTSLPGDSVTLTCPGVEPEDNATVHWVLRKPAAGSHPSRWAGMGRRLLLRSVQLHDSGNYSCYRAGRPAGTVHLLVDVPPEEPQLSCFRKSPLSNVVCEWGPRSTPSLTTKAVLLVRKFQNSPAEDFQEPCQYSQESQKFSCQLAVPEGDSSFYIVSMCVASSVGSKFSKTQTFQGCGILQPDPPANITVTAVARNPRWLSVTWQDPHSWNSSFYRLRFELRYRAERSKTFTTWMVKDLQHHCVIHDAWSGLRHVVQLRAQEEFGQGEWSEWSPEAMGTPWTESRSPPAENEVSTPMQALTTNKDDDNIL
Description: The antigen-antibody reaction kinetics between anti-human IL-6 receptor antibody and soluble human IL-6 receptor was analyzed using Biacore T100 (GE Healthcare Biosciences). The antigen-antibody interaction was measured by immobilizing rec-Protein A (Zymed) (hereinafter “Protein A”) onto a sensor chip, capturing an antibody with the immobilized Protein A, and then reacting the antibody with the antigen as an analyte using a method known to those skilled in the art. The running buffer used was HBS-EP+, and the flow rate was 20 μl/min. Each antibody was prepared so that about 100 RU of the antibody was bound to Protein A/G. Soluble human IL-6 receptor was prepared at 0, 0.065, 0.131, and 0.261 μg/ml using HBS-EP+ and used as an analyte. In the first step of the measurement, the antibody in solution was bound to Protein A/G, and the analyte solution was allowed to interact with the antibody. After three minutes of interaction, the solution was switched to HBS-EP+, and the dissociation phase was monitored for 10 or 15 minutes. After measurement of the dissociation phase, the sensor chip was regenerated by washing with 10 μl of 10 mM glycine-HCl (pH 1.5). The association, dissociation, and regeneration constitute one analysis cycle. Each antibody was measured according to this cycle. The obtained sensorgrams were kinetically analyzed using the Biacore-specific data analysis software, Biacore T100 Evaluation Software (GE Healthcare Biosciences).

[5] = target: T5, soluble GPC3 core polypeptide (human, UniProt P51654 25-563); assay: competitive ELISA on plate-immobilized soluble GPC3 core polypeptide; competitor: biotinylated GPC3-H2L2 antibody at 0.3 µg/mL
T5 construct: also called soluble GPC3 core protein; soluble glypican-3 core
Description: The binding activities of prepared antibodies were determined by competitive ELISA. […] The plates were incubated at 4° C. for 30 minutes or more for blocking. […] The plates were incubated at room temperature for one hour, and then washed five times with washing buffer using SkanWasher 400 (Molecular Devices). 100 μl of goat anti streptavidin alkaline phosphatase (Zymed) 20,000-times diluted with substrate buffer was added to each well. The plates were incubated at room temperature for one hour, and then washed five times with washing buffer using SkanWasher 400. Phosphatase Substrate (Sigma) was prepared at 1 mg/ml using substrate buffer, and added to each well (100 μl). The plates were incubated for one hour.

[6] = target: T3, soluble human FcRn (complex of FcRn and …); assay: SPR (Biacore 3000), antibody captured on Protein L or anti-human kappa chain antibody, human FcRn as analyte, pH 6.0, steady state affinity; remark: listed apart in the source
Description: as §1, §2

T3 sequence (P55899 24-290 limits assumed, chain 1 of 2): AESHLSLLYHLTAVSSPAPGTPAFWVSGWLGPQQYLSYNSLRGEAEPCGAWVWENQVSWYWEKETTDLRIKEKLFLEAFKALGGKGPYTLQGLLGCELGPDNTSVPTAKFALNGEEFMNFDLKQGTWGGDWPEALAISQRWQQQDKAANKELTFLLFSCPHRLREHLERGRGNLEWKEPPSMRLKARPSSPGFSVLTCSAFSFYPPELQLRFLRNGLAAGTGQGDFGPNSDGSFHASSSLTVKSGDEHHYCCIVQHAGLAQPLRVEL
T3 sequence (P16213 21-119 limits assumed, chain 2 of 2): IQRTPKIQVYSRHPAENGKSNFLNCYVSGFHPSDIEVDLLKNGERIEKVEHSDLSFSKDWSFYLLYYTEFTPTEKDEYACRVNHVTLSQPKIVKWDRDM
T5 sequence (P51654 other isoform, or with tags, fused parts or gaps limits assumed): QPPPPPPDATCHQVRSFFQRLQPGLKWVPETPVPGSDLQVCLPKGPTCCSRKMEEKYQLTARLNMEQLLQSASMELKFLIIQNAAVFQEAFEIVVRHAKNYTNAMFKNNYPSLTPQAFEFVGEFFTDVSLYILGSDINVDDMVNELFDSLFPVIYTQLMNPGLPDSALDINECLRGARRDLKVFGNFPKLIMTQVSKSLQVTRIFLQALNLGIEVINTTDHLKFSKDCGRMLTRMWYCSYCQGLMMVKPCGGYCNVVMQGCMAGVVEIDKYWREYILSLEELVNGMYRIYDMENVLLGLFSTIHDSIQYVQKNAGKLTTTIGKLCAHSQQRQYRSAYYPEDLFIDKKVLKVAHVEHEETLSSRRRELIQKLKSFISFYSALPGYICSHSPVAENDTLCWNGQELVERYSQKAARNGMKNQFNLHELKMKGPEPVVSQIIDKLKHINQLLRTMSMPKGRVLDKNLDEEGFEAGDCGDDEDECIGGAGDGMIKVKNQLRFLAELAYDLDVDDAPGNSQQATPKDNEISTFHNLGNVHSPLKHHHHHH
T2 sequence (P08637 17-208 F176V limits assumed): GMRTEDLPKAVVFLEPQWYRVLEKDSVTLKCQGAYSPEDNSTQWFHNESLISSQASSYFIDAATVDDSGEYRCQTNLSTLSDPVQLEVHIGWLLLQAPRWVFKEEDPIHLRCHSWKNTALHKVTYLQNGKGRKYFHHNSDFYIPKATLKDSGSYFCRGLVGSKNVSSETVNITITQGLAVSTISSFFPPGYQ

B1: WT-M14ΔGK (antibody)
heavy: QVQLQESGPGLVRPSQTLSLTCTVSGYSITSDHAWSWVRQPPGRGLEWIGYISYSGITTYNPSLKSRVTMLRDTSKNQFSLRLSSVTAADTAVYYCARSLARTTAMDYWGQGSLVTVSSASTKGPSVFPLAPSSKSTSGGTAALGCLVKDYFPEPVTVSWNSGALTSGVHTFPAVLQSSGLYSLSSVVTVPSSNFGTQTYTCNVDHKPSNTKVDKTVERKSCVECPPCPAPPVAGPSVFLFPPKPKDTLMISRTPEVTCVVVDVSHEDPEVQFNWYVDGVEVHNAKTKPREEQFNSTFRVVSVLTVVHQDWLNGKEYKCKVSNKGLPSSIEKTISKAKGQPREPQVYTLPPSREEMTKNQVSLTCLVKGFYPSDIAVEWESNGQPENNYKTTPPVLDSDGSFFLYSKLTVDKSRWQQGNVFSCSVMHEALHNHYTQKSLSLSP
light: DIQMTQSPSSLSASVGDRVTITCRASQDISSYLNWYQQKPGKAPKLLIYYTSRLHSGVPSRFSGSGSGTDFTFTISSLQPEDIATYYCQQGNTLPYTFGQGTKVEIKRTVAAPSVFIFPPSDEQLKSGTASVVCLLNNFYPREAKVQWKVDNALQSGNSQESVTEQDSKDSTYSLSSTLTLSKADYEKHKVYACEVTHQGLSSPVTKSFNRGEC
[1]
  binding result: binds
[2]
  binding result: binds
[3]
  Kd: 1850 nM

B2: 6R_a_H3L3 (antibody, human IgG1, kappa, V domains shown)
VH: QVQLQESGPGLVKPSETLSLTCAVSGYSISDDHAWSWVRQPPGEGLEWIGYISYSGITNYNPSLQDRVTISRDNSKNTLYLQMNSLRAEDTAVYYCARLLARATAMDYWGQGILVTVSS
VL: DIQMTQSPSSLSASVGDSVTITCQASEDISSYLNWYQQKPGKAPELLIYYGSELESGVPSRFSGSGSGTDFTFTISSLEAEDAATYYCGQGNRLPYTFGQGTKVEIER
[4]
  Kd: 0.052 nM

B3: GPC3_H2L2 (antibody, human IgG1, kappa, V domains shown)
VH: QVQLVQSGAEVKKPGASVKVSCKASGYTFTDYEMHWVRQAPGQGLEWMGALDPKTGDTAYSQKFKGRVTLTADKSTSTAYMELSSLTSEDTAVYYCTRFYSYTYWGQGTLVTVSS
VL: DVVMTQSPLSLPVTPGEPASISCRSSQSLVHSNRNTYLHWYLQKPGQSPQLLIYKVSNRFSGVPDRFSGSGSGTDFTLKISRVEAEDVGVYYCSQNTHVPPTFGQGTKLEIKR
[5]
  IC50 (read off the curve): ~0.9 µg/mL

B4: GPC3_H3L3 (antibody, human IgG1, kappa, V domains shown)
VH: QVQLVQSGAEVKKPGASVTVSCKASGYTFTDYEMHWIRQPPGEGLEWIGAIDPKTGDTAYSESFQDRVTLTADKSTSTAYMELSSLTSEDTAVYYCTRFYSYTYWGQGTLVTVSS
VL: DIVMTQSPLSLPVTPGEPASISCQASESLVHSNRNTYLHWYLQKPGQSPQLLIYKVSNRFSGVPDRFSGSGSGTDFTLKISRVEAEDVGVYYCSQNTHVPPTFGQGTKVEIER
[5]
  IC50 (read off the curve): ~0.9 µg/mL

B5: anti-IL-31 receptor antibody H0L0 with IgG1 constant region (antibody)
heavy: not shown
VL: DIQMTQSPSSLSASVGDRVTITCRTSENIYSFLAWYQQKPGKAPKLLIYNAKTLAKGVPSRFSGSGSGTDFTLTISSLQPEDFATYYCQHHYESPLTFGGGTKVEIK
notes: Not the anti-glypican 3 antibody of the same name; also called H0L0 (IgG1)
[6]
  Kd: 1070 nM

B6: anti-IL-31 receptor antibody H0L0 with M58 constant region (antibody)
heavy: QVQLVQSGAEVKKPGASVKVSCKASGYTFTGYIMNWVRQAPGQGLEWMGLINPYNGGTSYNQKFKGRVTITADESTSTAYMELSSLRSEDTAVYYCARDGYDDGPYTMDYWGQGTLVTVSASTKGPSVFPLAPSSKSTSGGTAALGCLVKDYFPEPVTVSWNSGALTSGVHTFPAVLQSSGLYSLSSVVTVPSSNFGTQTYTCNVDHKPSNTKVDKTVERKSCVECPPCPAPPVAGPSVFLFPPKPKDTLMISRTPEVTCVVVDVSQEDPEVQFNWYVDGVEVHNAKTKPREEQFNSTFRVVSVLTVVHQDWLNGKEYKCKVSNKGLPAPIEKTISKTKGQPREPQVYTLPPSQEEMTKNQVSLTCLVKGFYPSDIAVEWESNGQPENNYKTTPPMLDSDGSFFLYSKLTVDKSRWQEGNVFSCSVMHEALHNHYTQKSLSLSP
VL: DIQMTQSPSSLSASVGDRVTITCRTSENIYSFLAWYQQKPGKAPKLLIYNAKTLAKGVPSRFSGSGSGTDFTLTISSLQPEDFATYYCQHHYESPLTFGGGTKVEIK
notes: also called H0L0 (M58)
[6]
  Kd: 910 nM

B7: 6R_a_H1L1 (antibody, human IgG1, kappa, V domains shown)
VH: QVQLQESGPGLVRPSQTLSLTCTVSGYSITSDHAWSWVRQPPGRGLEWIGYISYSGITTYNPSLKSRVTMLRDTSKNQFSLRLSSVTAADTAVYYCARVLARITAMDYWGQGSLVTVSS
VL: DIQMTQSPSSLSASVGDRVTITCRASQDISSYLNWYQQKPGKAPKLLIYYTSRLHSGVPSRFSGSGSGTDFTFTISSLQPEDIATYYCGQGNRLPYTFGQGTKVEIKR
notes: Anti-human IL-6 receptor antibody
[4]
  Kd: 0.067 nM

B8: 6R_a_H2L2 (antibody, human IgG1, kappa, V domains shown)
VH: QVQLQESGPGLVKPSETLSLTCAVSGYSISDDHAWSWVRQPPGEGLEWIGYISYSGITNYNPSLKGRVTISRDTSKNQFSLKLSSVTAADTAAYYCARVLARITAMDYWGEGTLVTVSS
VL: DIQMTQSPSSLSASVGDSVTITCQASQDISSYLNWYQQKPGKAPELLIYYGSELHSGVPSRFSGSGSGTDFTFTISSLEAEDAATYYCGQGNRLPYTFGQGTKVEIER
[4]
  Kd: 0.03 nM
